The chains are these.
B1: KRAS_G12S epitope peptide … (peptide)
peptide: VVGASGVGK
B2: KRAS_G12A epitope peptide … (peptide)
peptide: VVGAAGVGK
B3: TP53_G245S epitope peptide … (peptide)
peptide: SSCMGSMNR
B4: PIK3CA_E542K epitope peptide … (peptide)
peptide: ISTRDPLSK
B5: KRAS_G13D epitope peptide … (peptide)
peptide: VVGAGDVGK
B6: PIK3CA_E542K epitope peptide … (peptide)
peptide: KAISTRDPLSK
B7: KRAS_G12C epitope peptide … (peptide)
peptide: VVGACGVGK
B8: KRAS_G13D epitope peptide … (peptide)
peptide: VVVGAGDVGK

The target in this assay is HLA-A*11:01 on TAP2-KO HLA class I monoallelic TISI cells (human | human (endogenous in TISI)). Description: flow cytometry on cells. A general note: A flow cytometer gives signals particle by particle.
For B1, the ΔHLA (% control) worked out at 219%.
With B2, the ΔHLA (% control) worked out at 218%.
As for B3, the figure is 107%; as for B4, 124%; as for B5, 181%.
Then B6, with 127%; and B7, with 234%.
B8 yielded a ΔHLA (% control) of 195%.

The record behind these values is publication PMC10320429.
